The target in assay [1] is rabbit muscle G-actin, biotinylated (rabbit) (UniProt P68135).
The target of assay [2] is P. falciparum G-actin, biotinylated (P. falciparum 3D7 (endogenous in merozoites)) (UniProt Q8I4X0). Nature of the assay: BLI.
Assay [3] concerns the target P. falciparum F-actin, biotinylated (P. falciparum 3D7 (endogenous in merozoites)) (UniProt Q8I4X0). Nature of the assay: BLI. (In general: Biolayer interferometry detects binding as a change in optical thickness at a sensor tip.)

Drawing on paper PMC4251702, this text covers initial rate of polymerization of 2.5 μM pyrene-labelled rabbit actin with 50 μM RH1 CTD peptide, without aldolase (control without addition 35, bovine serum albumin 34) (fluorescence units min^-1), initial rate of polymerization of 2.5 μM pyrene-labelled rabbit actin with 50 μM MTRAP CTD peptide, without aldolase (control without addition 35, bovine serum albumin 34) (fluorescence units min^-1) and Kd for three substances.

“RH1 cytoplasmic tail domain peptide (residues 2942-2971)” showed an initial rate of polymerization of 2.5 μM pyrene-labelled rabbit actin with 50 μM RH1 CTD peptide, without aldolase (control without addition 35, bovine serum albumin 34) (fluorescence units min^-1) in assay [1] of 69.

In assay [1], “PfMTRAP cytoplasmic tail domain peptide (residues 452-498)” came in with an initial rate of polymerization of 2.5 μM pyrene-labelled rabbit actin with 50 μM MTRAP CTD peptide, without aldolase (control without addition 35, bovine serum albumin 34) (fluorescence units min^-1) of 66.

As usually defined, the Kd is a measure of binding affinity in units of concentration. A high value points to weaker binding. With “Plasmodium falciparum aldolase (from UniProt P14223 1-369) (enzyme)”, the Kd in assay [2] is 470 nM; in assay [3] it was 370 nM.
